Key:
[1] = target: T1, ΔMRP1 (Homo sapiens, UniProt P33527); assay: Restoration of ΔMRP1 transport activity by L0 peptides (vesicular LTC4 / NEM-GS uptake, Sf9 membranes); type: biochemical
T1 construct: An N-terminally truncated MRP1 (amino acids 281-1531); made in house; host or cells: baculovirus-infected Sf9 cells, membrane vesicles
Experimental: The obtained pCLTRX-L0 vector was cloned to E. coli BL21 (DE3) cells, which in turn were grown in TYBG antibiotic broth (10 g tryptone, 10 g yeast extract, 4 g glucose, pH 7.2, 100 μg/ml ampicillin, 25 μg/ml kanamycine) at 37° C. When OD(600) exceeded 1.1 cells were pelleted by centrifugation, suspended in M9 medium, the incubated at 28° C. for 30 min. Afterwards, expression was induced by IPTG for 2 hours. When the induction was finished, cells were pelleted by centrifugation and the pellet was washed with 20% sacharose, then suspended in a solution comprising 20% agarose, 10 mM Tris and 0.1 μg/ml lysosyme (pH 7.2) and incubated for 30 min at 4° C. then sonicated. The lysed cells were pelleted by centrifugation (20000 g, 20 min). The so obtained lysate was used in the further experiments, for studying the restoration of the transport activity.
In order to correctly determine the transport function of the different MRP1 proteins, we estimated the relative amount of transport-competent inside-out vesicles in the Sf9 membrane preparations [Bakos É. et al, (1998), see above], and corrected the transport rates according to the relative MRP1 expression levels, as determined by immunoblotting.

[2] = system: MDCKII-ΔMRP1 cells; assay: Immunolocalization of L0 co-expressed with ΔMRP1 in MDCKII monolayers (rescue to plasma membrane); type: cell-based; settings: pool of puromycin resistant MDCKII-ΔMRP1 cells
Source text: L0 was detected by indirect immunofluorescence with mAb R1 (green color, light signal in the lateral membrane). […] The arrow head indicates the position where the section was made. Nucleic acids were counterstained with propidium iodide (red signal).
For expression of MRP1 variants in MDCKII cells, the L0MDR1 chimera, ΔMRP1, and MRP1Δ(223-232) were inserted as blunt-end fragments into the retroviral vector pCMV-neo as described [Bakos É et al, (1998), see above]. For co-expression experiments the L0 fragment was cloned into the pBabe-Puro-CMV vector (kindly provided by Dr. J. Wijnholds, The Netherlands Cancer Institute, Amsterdam, The Netherlands). This vector was generated by cloning the blunt-ended HindIII fragment from pCMV-neo (containing the CMV early promoter) into the blunt-ended BamHI site of the pBabe-puro vector [Morgenstern J. P., and Land, H. (1990) Nucleic Acids Res. 18, 3587-3596]. Cells were retrovirally-transduced as described before [Evers, R. Kool, M., van Deemter, L., Janssen, H., Calafat, J., Oomen, L. C., Paulusma, C. C., Oude Elferink R. P., Baas, F., Schinkel, A. H., and Borst P. (1998) J. Clin Invest. 101, 1310-1319]. MDCKII cells stably transduced with the pBabe-Puro or pCMV-neo vector were selected for 4-6 days in medium containing puromycin (3 μg/ml) or for 7 days in medium containing G-418 (800 μg/ml), respectively. […]

[3] = target: MRP1 variants (Homo sapiens, UniProt P33527); assay: Vanadate-dependent nucleotide trapping by MRP1 variants in Sf9 membranes; settings: L0 peptide co-expressed with ΔMRP1

T1 sequence (P33527 281-1531, stated change not applied): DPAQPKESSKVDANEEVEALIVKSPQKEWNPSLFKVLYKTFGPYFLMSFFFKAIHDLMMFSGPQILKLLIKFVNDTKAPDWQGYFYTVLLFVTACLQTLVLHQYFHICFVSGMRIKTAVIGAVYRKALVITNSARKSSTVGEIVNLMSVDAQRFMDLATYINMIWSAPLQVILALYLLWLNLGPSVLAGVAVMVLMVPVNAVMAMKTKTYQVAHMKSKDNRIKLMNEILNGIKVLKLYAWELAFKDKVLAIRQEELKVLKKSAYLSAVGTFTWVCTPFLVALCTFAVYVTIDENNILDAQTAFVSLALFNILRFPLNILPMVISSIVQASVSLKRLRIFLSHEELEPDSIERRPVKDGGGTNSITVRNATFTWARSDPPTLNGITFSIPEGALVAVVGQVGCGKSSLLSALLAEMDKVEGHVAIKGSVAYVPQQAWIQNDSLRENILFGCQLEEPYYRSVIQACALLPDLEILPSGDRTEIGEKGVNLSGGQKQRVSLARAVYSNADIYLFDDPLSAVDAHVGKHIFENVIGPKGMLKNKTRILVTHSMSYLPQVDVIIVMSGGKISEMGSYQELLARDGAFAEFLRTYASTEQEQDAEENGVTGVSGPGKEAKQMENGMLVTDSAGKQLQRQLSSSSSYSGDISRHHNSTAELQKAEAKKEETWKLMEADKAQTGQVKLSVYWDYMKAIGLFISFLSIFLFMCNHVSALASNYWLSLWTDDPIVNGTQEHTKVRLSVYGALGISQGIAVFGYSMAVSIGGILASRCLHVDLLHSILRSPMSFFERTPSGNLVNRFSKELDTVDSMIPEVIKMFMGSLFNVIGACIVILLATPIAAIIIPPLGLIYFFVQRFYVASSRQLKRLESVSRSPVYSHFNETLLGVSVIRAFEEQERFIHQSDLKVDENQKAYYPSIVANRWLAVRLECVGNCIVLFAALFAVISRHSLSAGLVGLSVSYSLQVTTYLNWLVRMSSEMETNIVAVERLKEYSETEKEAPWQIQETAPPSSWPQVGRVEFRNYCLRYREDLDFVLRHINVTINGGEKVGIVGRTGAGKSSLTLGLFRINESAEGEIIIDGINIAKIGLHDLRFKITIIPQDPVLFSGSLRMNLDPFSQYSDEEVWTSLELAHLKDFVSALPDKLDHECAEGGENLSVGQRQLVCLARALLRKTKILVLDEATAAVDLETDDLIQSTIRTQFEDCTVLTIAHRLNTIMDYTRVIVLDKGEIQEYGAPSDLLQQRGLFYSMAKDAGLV

uptake of LTC4 on co-expression with ΔMRP1 ([1]; at 50 nM LTC4, Sf9 vesicles): about 90 % of MRP1 | uptake of NEM-GS on co-expression with ΔMRP1 ([1]; at 50 μM NEM-GS, Sf9 vesicles): about 40 % of MRP1 | restoration of nucleotide trapping of ΔMRP1 [3]: the full activity was restored
B1: L0: amino acids 204-281, representing the N-terminal linker region of MRP1, expressed as a separate peptide (protein, UniProt P33527 204-281, looked up, fragment)
chain: DPNPCPESSASFLSRITFWWITGLIVRGYRQPLEGSDLWSLNKEDTSEQVVPVLVKNWKKECAKTRKQPVKVVYSSKD
modifications: L0 linker region
notes: amino acids 204-281, representing the N-terminal linker region of MRP1, expressed as a separate peptide
localization of L0 (mAb R1 staining) [2]: clear lateral plasma membrane staining
